Data taken from paper PMC6818130.

Experiments:
[1] = confocal immunofluorescence co-localisation with LAMP1; conditions: glycan lost; control: wild-type GILT
[2] = Western blot, steady-state level, Tet-induced 293 cells; conditions: glycan lost; control: wild-type GILT
[3] = glycan lost

Gamma-interferon-inducible lysosomal thiol reductase (GILT, IFI30): N95A
decreases: localisation_or_trafficking [1] | expression_or_secretion [2] | other: restriction of viral entry [3]

Gamma-interferon-inducible lysosomal thiol reductase (GILT, IFI30): N108A
decreases: localisation_or_trafficking [1] | expression_or_secretion [2] | other: restriction of viral entry [3]

Gamma-interferon-inducible lysosomal thiol reductase (GILT, IFI30): N63A
decreases: localisation_or_trafficking [1] | expression_or_secretion [2] | other: restriction of viral entry [3]
